The values that follow come from patent US20060264369, “Aptamers to von Willebrand Factor and their use as thrombotic disease therapeutics” (published 2006).

Data set [1] concerns the target von Willebrand factor A1 domain (human) (Homo sapiens, UniProt P04275 SEQ:13-246). Description: filter; 100 nM protein. The text has this: When a significant positive ratio of binding of RNA in the presence of human or rabbit vWF A1 domain versus in the absence of protein was seen, the pools were cloned using the TOPO TA cloning kit (Invitrogen, Cat.# 45-0641, Carlsbad, Calif.) according to the manufacturer's instructions. Round 9 and 12 pool templates were cloned and sequenced (125 total sequences), producing 48 unique clones. All unique clones were transcribed, desalted, 5-³²P end-labeled, and assayed in a 3-point dot blot screen (no protein target control, 100 nM human vWF A1 domain (SEQ ID NO 5, FIG. 3), or 100 nM rabbit vWF A1 domain (SEQ ID NO 6, FIG. 3). The data is presented in the third and fourth columns of Table 4 below as the ratio of the fraction of the aptamer bound to the nitrocellulose in the presence of the target protein to the fraction of aptamer bound in the absence of the target protein.

The target of data set [2] is T1, von Willebrand factor full length (Homo sapiens, UniProt P04275 SEQ:764-2813). Put plainly: filter; DPBS, 0.1 mg/mL BSA, RT. The following applies: tags: Calbiochem 681300; label: 5'-32P. The method, then:
(§1) KD values were calculated by fitting the equation y=(max/(1+K/protein))+yint using KaleidaGraph (KaleidaGraph v. 3.51, Synergy Software).

The target in data set [3] is T1, von Willebrand factor full length. Description: filter; 26% bound at 100 nM vWF. The following applies: tags: Calbiochem 681300; label: 5'-32P. The method, then:
(§2) For KD determination, chemically synthesized aptamers were purified using denaturing polyacrylamide gel electrophoresis, 5′end labeled with γ-³²P ATP and were tested for direct binding to full length human vWF (Calbiochem Cat.# 681300, La Jolla, Calif.). An 8 point protein titration was used in the dot blot binding assay (100 nM, 30 nM, 10 nM, 3 nM, 1 nM, 300 pM, 100 pM, 0 pM)) in 1× Dulbecco's PBS containing […] (final volume of 50 uL) for 30 minutes at room temperature. KD values were calculated by fitting the equation y=(max/(1+K/protein))+yint using KaleidaGraph (KaleidaGraph v. 3.51, Synergy Software).

For data set [4] the target is unchanged. Put plainly: filter; 40% bound at 100 nM. To be noted: tags: Calbiochem 681300. The method, then: as §2
The target is the same in data set [5]. Description: filter; 43% bound at 100 nM. To be noted: tags: Calbiochem 681300. The method, then: as §2
For data set [6] the target is unchanged. Put plainly: filter; 46% bound at 100 nM. To be noted: tags: Calbiochem 681300. As to the method:
as §2

The target is the same in data set [7]. Put plainly: filter; DPBS, 0.1 mg/mL BSA, RT. The following applies: tags: Calbiochem 681300; label: 5'-32P. The method, then:
Based on this initial screen, KDs were determined for 3 of the vWF dependent binding sequences using the dot blot assay. […] A 12 point protein titration was used in the dot blot assay (300 nM, 100 nM, 30 nM, 10 nM, 3 nM, 1 nM, 300 pM, 100 pM, 30 pM, 10 pM, 3 pM, 0 pM) in 1× DPBS plus 0.1 mg/mL BSA at room temperature for 30 minutes. KD values were calculated by fitting the equation y=(max/(1+K/protein))+yint using KaleidaGraph (KaleidaGraph v. 3.51, Synergy Software).
This is another data set of the same source.

Data set [8] addresses von Willebrand factor A1 domain (Homo sapiens, UniProt P04275 SEQ:13-246). Description: filter; DPBS, 0.1 mg/mL BSA, RT. To be noted: label: 5'-32P. As to the method:
as §1

By Kd is commonly meant a measure of binding affinity in units of concentration.

B1: AMX201.B3 (ssRNA)
RNA: GGAGCGCACUCAGCCACAGAGCCCUGAGUGUAUGAUCGCCGAGAUCUAUCGAUGCUUUUUCGACCUCUCUGCUAGC
modifications: 2'-F pyrimidines
As for B1, in data set [1], the binding signal is 1.69 ratio to no protein.

B2: AMX201.H11 (ssRNA)
RNA: GGAGCGCACUCAGCCACCCUGUCGUCUUUUGGUAGUCAGCCAAAAGCUAGUUGGUUGUUUCGACCUCUCUGCUAGC
modifications: 2'-F pyrimidines
With B2, in data set [1], the binding signal was 1.75 ratio to no protein.
For GGGACGGGGTGGGTAGACGGCGGGTATGTCCC (mixed, 2'-OH purines, deoxy pyrimidines) [rRdY minimer SEQ 183], the Kd in data set [2] was 10 nM.

B3: AMX201.H4 (ssRNA)
RNA: GGAGCGCACUCAGCCACUAACGGUUGAUCUCAGGACUAAUAGUCAACAAGGAUGCGUUUCGACCUCUCUGCUAGC
modifications: 2'-F pyrimidines
As for B3, the binding signal in data set [1] was 1.79 ratio to no protein.
For the molecule GGCGTGCAGTGCCTTCGGCCGTGCGGTGCCTCCGTCACGCC (ssDNA, 2'-OMe C30, 3'-idT) [ARC1223], the Kd in data set [3] came out at 36 nM.
In the case of GGCGTGCAGUGCCTTCGGCCGTGCGGTGCCTCCGTCACGCC (ssDNA, 2'-OMe at 10 (mU); 3'-idT) [ARC1203], the Kd in data set [4] stood at 3 nM.
Consider GGCGTGCAGTGCCTTCGGCCGTGCGGTGCCTCCGUCACGCC (ssDNA, 2'-OMe at 35 (mU); 3'-idT) [ARC1228], for which the Kd in data set [5] amounted to 2 nM.
GGCGTGCAGTGCCTTCGGCCGTGCGGTGCCTCCGTCACGCC (ssDNA, 2'-OMe at 4; 3'-idT) [ARC1197]: the equilibrium dissociation constant (Kd) in data set [6] amounted to 2 nM.
Turning to GGCGTGCAGTGCCTTCGGCCGTGCGGTGCCTCCGTCACGCC (ssDNA, 2'-OMe at 29; 3'-idT) [ARC1222], in data set [4], the Kd was 0.9 nM.
Take GGCGTGCAGTGCCTTCGGCCGTGCGGTGCCTCCGTCACGCC (ssDNA, 2'-OMe at 3; 3'-idT) [ARC1196]: the Kd in data set [6] stood at 2 nM.
Regarding GGCGTGCAGTGCCTTCGGCCGTGCGGTGCCTCCGTCACGCC (ssDNA, 2'-OMe at 34; 3'-idT) [ARC1227], in data set [4], the Kd worked out at 3 nM.
Consider GGCGTGCAGTGCCTTCGGCCGTGCGGTGCCTCCGTCACGCC (ssDNA, 2'-OMe at 23; 3'-idT) [ARC1216], for which the Kd in data set [4] came to 0.6 nM.
Take GGCGTGCAGTGCCTTCGGCCGTGCGGTGCCTCCGTCACGCC (ssDNA, 2'-OMe at 28; 3'-idT) [ARC1221]: the Kd in data set [5] was 1 nM.
Turning to GGCGTGCAGTGCCTTCGGCCGTGCGGTGCCTCCGTCACGCC (ssDNA, 2'-OMe at 11,17,18; 3'-idT) [ARC1238], in data set [5], the Kd is 2 nM.
GGCGTGCAGTGCCTTCGGCCGTGCGGTGCCTCCGTCACGCC (ssDNA, 2'-OMe at 20; 3'-idT) [ARC1213]: in data set [5], the Kd came to 6 nM.
Consider GGCGUGCAGUGCCUUCGGCCGTGCGGTGCCTCCGTCACGCC (mixed, 2'-OMe at 1-5, 9-19, 37-41, 3'-idT) [ARC1341], for which the Kd in data set [3] came to 22.5 nM.
As to GGCGTGCAGTGCCTTCGGCCGTGCGGTGCCTCCGTCACGCC (ssDNA, 2'-OMe at 37; 3'-idT) [ARC1230], the Kd in data set [6] turned out to be 3 nM.
On to GGCGTGCAGTGCCTTCGGCCGTGCGGTGCCTCCGTCACGCC (ssDNA, 2'-OMe at 1; 3'-idT) [ARC1194], for which the Kd in data set [6] turned out to be 3 nM.
As for GGCGTGCAGTGCCTTCGGCCGTGCGGTGCCTCCGTCACGCC (ssDNA, 2'-OMe at 11,12,13,17,18,19; 3'-idT) [ARC1240], in data set [4], the Kd worked out at 4 nM.

B4: AMX237.G6 (ssDNA)
DNA: CTACCTACGATCTGACTAGCGTGCAGTGCCTATTCCAGGCCGTGCGGTGCCTCCGTCACGCTTACTCTCATGTAGTTCC
As for B4, the Kd in data set [7] was 0.2 nM.

B5: AMX238.E9 (ssDNA)
DNA: CTACCTACGATCTGACTAGCGTGCAGTGCCCATCTTAGGCCGTGCGGTGCCTCCGTCACGCTTACTCTCATGTAGTTCC
With B5, the Kd in data set [7] is 0.39 nM.

B6: AMX238.H5 (ssDNA)
DNA: CTACCTACGATCTGACTAGCGTGCAGTGCCTATTCTAGGCCGTGCGGTGCCTCCGTCACGCTTACTCTCATGTAGTTCC
Consider B6, for which, in data set [7], the Kd came to 0.33 nM.
On to GGAGCCACGGGGTGGGTAGACGGCGGGTATGTGGCTCC (mixed, 2'-OH purines, deoxy pyrimidines) [rRdY minimer SEQ 180], for which the Kd in data set [8] was 11 nM; in data set [2] it was 1 nM.

B7: AMX201.B11 (ssRNA)
RNA: GGAGCGCACUCAGCCACACCGAGGCUGGAUAUCUACGAGAGGAAGUGCUGCUUGAAUUUCGACCUCUCUGCUAGC
modifications: 2'-F pyrimidines
As for B7, in data set [1], the binding signal is 1.55 ratio to no protein.

B8: AMX201.D10 (ssRNA)
RNA: GGAGCGCACUCAGCCACACUGAGGCUGGAUAUCUACGAGAGGAAGUGCUGCUUGGAUUUCGACCUCUCUGCUAGC
modifications: 2'-F pyrimidines
With B8, in data set [1], the binding signal is 1.59 ratio to no protein.

B9: AMX201.D3 (ssRNA)
RNA: GGAGCGCACUCAGCCACGCCCACGUCAAAUUAUAGUCUACUUUGAUGUGCCCGUGGUUUCGACCUCUCUGCUAGC
modifications: 2'-F pyrimidines
With B9, the binding signal in data set [1] is 1.76 ratio to no protein.

B10: AMX201.D4 (ssRNA)
RNA: GGAGCGCACUCAGCCACUGGGGCUGAUCUCGCACGAUAGUUCGUGUCAAGGAUGCGUUUUCGACCUCUCUGCUAGC
modifications: 2'-F pyrimidines
Regarding B10, in data set [1], the binding signal is 2.23 ratio to no protein.
On to GGCCACACGACATTGGCGGGCGAGAGCCACGCATGGCC (mixed, 2'-OH purines, deoxy pyrimidines) [rRdY minimer SEQ 198], for which the Kd in data set [8] amounted to 5 nM; in data set [2], 3 nM.

B11: AMX201.A8 (ssRNA)
RNA: GGAGCGCACUCAGCCACGCUGUACACUGAUGUUGUAACAUGUACCCCCUGGCUGUUUCGACCUCUCUGCUAGC
modifications: 2'-F pyrimidines
Regarding B11, the binding signal in data set [1] was 1.82 ratio to no protein.
GGAGCCACACGACATTGGCGGGTTGTAATTACCACGCATGGCTCC (mixed, 2'-OH purines, deoxy pyrimidines) [rRdY minimer SEQ 189]: the Kd in data set [2] is 1 nM.
In the case of CCGGCCGTGCGGTGCCUCCGUCACGUUCCGUGCAGUGCCGG (mixed, 2'-OMe/deoxy composite, single PS, 3'-idT) [ARC1546], the Kd in data set [3] stood at 24 nM.
Regarding GGAGCCACACGACATTGGCGGGCGAGAGCCACGCATGGCTCC (mixed, 2'-OH purines, deoxy pyrimidines) [rRdY minimer SEQ 192], the Kd came out at 4 nM in data set [8] and 2 nM in data set [2].
